Experimental data taken from patent publication US20220372463A1.

Molecular target: Streptococcus pyogenes Cas9 endonuclease (Streptococcus pyogenes) (UniProt Q99ZW2)
Test: cell-based or functional assay

Substance	fold decrease of the transition rate to the inhibited state relative to CascAID with wild-type AcrIIA4 [fold]	kact (constant activation parameter for all CascAID variants; best fit of the ODE model to editing data) [h⁻¹]	γ4 (inhibitor strength: fold-change relative to the inhibition rate of CascAID wt; best fit of the ODE model) [unitless]	γ3 (inhibitor strength: fold-change relative to the inhibition rate of CascAID wt; best fit of the ODE model) [unitless]	kinh, CascAID (inhibition parameter for CascAID wt; best fit of the ODE model to editing data; marked not identifiable) [h⁻¹]
AcrIIA4 D14A/G38A as the auto-inhibitory domain of CascAID D14A/G38A	19	1.13	0.0519		
AcrIIA4 N39A as the auto-inhibitory domain of CascAID N39A	16	1.13		0.0609	
wild-type AcrIIA4 as the auto-inhibitory domain of CascAID wt (Cas9 fused to wild-type AcrIIA4)		1.13			618
